Assay results taken from a protein production outcome set (Wang et al. 2014).

Test: label from the status in PepcDB records

| Sequence | protein production |
| --- | --- |
| MGHHHHHHSHMTLEEFSAGEQKTERMDKVGDALEEVLSKALSQRTITVGVYEAAKLLNVDPDNVVLCLLAADEDDDRDVALQIHFTLIQAFCCENDINILRVSNPGRLAELLLLETDAGPAASEGAEQPPDLHCVLVTNPHSSQWKDPALSQLICFCRESRYMDQWVPVINLPER | failed |
| MGHHHHHHSHMTNTVDSLFDTGLERYKAGEPAADLIPVFKEVCDRAPKASAAWICLAWLYLLEDKPNLALKAAQKAVKINPQDPQARVNLAVAMLETGQKGLRQHIDITQQLMLVNPDWRDEIQNSIADGLSRKPDWQSLAKVKGWLFNE | not failed |
| MGHHHHHHSHMYRYFTPKIVKRALNIWPPFWGAGISIENISSDFQEVSVILKDRFWNRNANRTQYGGSIFSMTDPVFSLMLMGILRDEYYVWDKQSEIDFISPGTTDLHARFVISDEQLAEIKQETKEGEKHFPQFEVYIYDKKGKVVARVNRTLYVRKKPEFR | not failed |
| MGHHHHHHSHPPRDLDSKACISIGNQNFEVKADDLEPIMELGRGAYGVVEKMRHVPSGQIMAVKRIRATVNSQEQKRLLMDLDISMRTVDCPFTVTFYGALFREGDVWICMELMDTSLDKFYKQVIDKGQTIPEDILGKIAVSIVKALEHLHSKLSVIHRDVKPSNVLINALGQVKMCDFGISGYLVDSVAKTIDAGCKPYMAPERINPELNQKGYSVKSDIWSLGITMIELAILRFPYDSWGTPFQQLKQVVEEPSPQLPADKFSAEFVDFTSQCLKKNSKERPTYPELMQHPFFTLHESKGTDVASFVKLILGD | not failed |
| MGHHHHHHSHSIKPSTNLVFAKVLEKTRHPNANHLNLVKVKANQKVYEIVCGANNFSVHNWVVLAKLNAELANGLKITPRELRGYVSNGMLCAYSEINPQATSFLTSTDLDGILVLDDNYDHYKTPNQIFNLDDVILDLSIPSNRNDLNGYFWIAKELCAYFDFEYVVDATINHRPHKEIIDVRI | failed |
| MGHHHHHHSHSVGMDTFIHRIDSTEVIYQPRRKRAKLIGKYLMGDLLGEGSYGKVKEVLDSETLCRRAVKILKKKKLRRIPNGEANVKKEIQLLRRLRHKNVIQLVDVLYNEEKQKMYMVMEYCVCGMQEMLDSVPEKRFPVCQAHGYFCQLIDGLEYLHSQGIVHKDIKPG | failed |
| MGHIKKGELTQEEKELLEVIGKGTVQEAGRLLSSKNVHVNCLDENGMTPLMHAAYKGKLEMCKLLLRHGADASCHQHEHGYTALMFAALSGNKDITWVMLEAGAETDVVNSVGRTAAQMAAFVGQHDCVAIINNFFPRERLDYYTKPQGLDKEPKQPPKLAGPLHKIITTTNLHPVKIVMLVSENPLLADAAALGKCYRVMDLICEKCMKQRDMNEVLAMKMHYISCIFQKCITFLKEGENKLDTLIRSLLKGRASDGFPVYQEKIIRESIRKFPYCEATLLQQLVRSIAPVEIGSDPTAFSVLTQAITGQVGFVDVEFCTTCGEKGASKRCSVCKMVIYCDQTCQKTHWFAHKKMCKSLKDVYEKQQIEAAKHKRQEEKNGNPNVSSNHVNEDQPEAEEGITQENSIPSDSVEGEKEAANDTGLASAQDAPTGPQLSEE | failed |
| MGHKQSVDSRGKGRKVPGSSSMVQKHRVESSGGAIISGPSLFDNLPEDCISNIISFTSPRDACVAASVSKTFESAVNSDSVWDKFLPSDYSSLVPPSRVFSSKKELYFAICDNPVLVEDGGKSFWLEKENGKKCFMLSPKKSMWITWVSTPQYWRWISIPEARFEEVPELLNVCWFEVRGGMNTKELSPGTRYSAYIVFKTKNGCPNLGDVPVEATVGLVGQESSQRHIYFVGPSDQRRDRETRDVTRPTKRKDGWMEAELGQFFNESGCDVVDTSILEIKTPYWKRGLIIQGIEFRPTKSLFYI | not failed |
| MGHPPQLPGGRCPMSQTMDFDTLRRAMADNYEQPEGPARNARAEQLLTEAEKLNIPLAVIEALGHQLKVYNYSSEKDKMFVPFARLLRMWDERPEDFDEYEIHSLHWVFKWMSAGMLGQPHIPLASIEKWLGEMEHRYRLAGHSERAVRSAEFSVANHIGDLARAERAYAAWLAADRDSMADCHACELHDQGWWQARKGADADALEVWRPVVEGEYVCAHEPHAILASSLVPLLRLGRLDEARAHHLRGFRLIRPMESMRGAYADHVEFCALSGNEARALELLAERPAYFTDSGEPRSKLDFMAVVALLMDRLVELGLGEQTVPGPAGRVWSARELAAHARAEALALAARFDERNGTAHVSERARERMDRRPLVDRLPLGVRSTRPAPTAPRPPAAPDSAPAPAVERDLRDVLAEARGRSDALRPDAMDAWAAVARAAGDHELDARDRAEIADHEAMSRGPEGAPLFERAAELYAEAGDPGEALAARARGAYVRALTGHSDDALRTINDLHRQVRALFAKDGTGVRQTAAVLVGRARILVHRVHETEGAGTTVAAAEEAVRELLEFAEPHIAQVRLASRAAEARAMLGELAALTGDAMTAAELLAQAAEGFLAAGLPWFAVEYEARLAGIARELGDAVEAERAARSALEHGVEYLEPAGQAQLHLQLAEVLGTTGQFGPAAEHALEAAHWADEAGEGPTFGAWARHQLGGFLLQQGRWAEAAEVLESALPDLTAETHGDGALVQTQWWLGDCHTELGEHREAAERWLRAAEIARHWPEQRDHAMLAHLAAEALGHAGLPAEADRAYTRAGDLWRDLGNVHGLARALRARAWLAAREEDELDPARELMAQAVRECEAALEGATEGEDGARERLVAELGHTHRQFGDLVARSVQDGDRGADFQGAFEEALGHVTRAVAVFAPLGASALDLRTGAELAAGWLEADLHRPAEATARARAVLAAYANRQEADDETARARCAEADRMLELLGTRTGQ | failed |
| MGHVLIEMMGIKKGDFVLDVGCGTGRQALNVAGIIGPAGKLTGIDPSSYRIELARKKFEGDSSGNVRFLVRQAENLQDIPDNSINHAYFCSSFHWVDDKKTALNEIFRVLRPGGKVGMTTLDRNSPNTMKALIDPILAKFGIERRHEWHRGMKKVTAPELHDLLSGAGFTSISIEPRAVPRKYNSPEEFLQHPEEKDSSRGILRDISNETLEKLRQEITEEFRKAQTPEDIGFGNITLFAIATKAQEGLEHHHHHH | not failed |
| MGIGFKGRKTLLRELVKYMVTLCISLVVLALLYIFINTIAMNTGFSHPANYNEREAEKLAPKLETIDKVTADMIPDTMSYAILNKETKQKTAGTIKEKDLQLVKKKIEKKPYVNYKQKGYLVIERNNEYCVLQYSLRADFSSPLLRKYLPNYELTSICILIILLIIVISIITTYFANRLRKHFETLNVITRYIKEQNLQFTPEFTHIKEFDDVIDSLIEMRDALQSSLEALWRLEKNKKEQIGALAHEIKIPITIIKGNAELLSLSMQNEEQAEYTKYILGAGNQIEQYIYQLIHLSKTEDALTIHLEKASVDELTETLVKDISAYKGNKNINISFKKENLMKEAKIDWQLLHRALLNILTNAVDYTPEGGTVSVHAESILRYFIFL | failed |
| MGIQETDPLTQLSLPPGFRFYPTDEELMVQYLCRKAAGYDFSLQLIAEIDLYKFDPWVLPNKALFGEKEWYFFSPRDRKYPNGSRPNRVAGSGYWKATGTDKIISTEGQRVGIKKALVFYIGKAPKGTKTNWIMHEYRLIEPSRRNGSTKLDDWVLCRIYKKQSSAQKQVYDNGIANAREFSNNGTSSTTSSSSHFEDVLDSFHQEIDNRNFQFSNPNRISSLRPDLTEQKTGFHGLADTSNFDWASFAGNVEHNNSVPELGMSHVVPNLEYNCGYLKTEEEVESSHGFNNSGELAQKGYGVDSFGYSGQVGGFGFM | failed |
| MGIYQWRDKKKPSGGKRRYYYKVKRKYAAGRPPTYTTLSAAEEEERKPVRARGGSYKIKAKKVAFAVVSNPKTGEARKARILRIVETPAHREYARRGIIVKGAVIDTTLGRAVVTSRPGQEGVVNAVLLEEQGQKQLEHHHHHH | not failed |
| MGKEAVTGKVRKLTVQLDHQTGDLKGCSRRGPTPRSRAPGAKLSAPEAGPPRRGPLPRGGAGRDTLLGAKATPSSPAARRYVTALGPPQPRGSTDSACAALPQPVPHEPREAAFRLAPASERGASVSPARIPRRRRRVPAMWDPRAARTPPRELAMLLCNKSNAFYNLGKWNEAFLAAKECLQWDPTYVKGYYRAGYSLLHLLQPYEAARMFFEGLRLLQRSPDQLQVPDFLVGIFTTMSSDSIVLQSFLPCFDHIFTTGFSTEVWQYVIQKLAKKGLWHQSFLLLSAKKDRLPSNIHVSELSLQSLFEKYVFIGFYEKLEQVPKLVQWLVSIGANIETIGPNPLHALMRLCIQARESQLFRWVMDQKPEWKEHINHRDDAGCTVLHVAAAHFPGYTSRRQTEDVQMLLSFGADPTLLDGHARTVVDVLKRNKNFRAIDKINSHLEKLASSSKGLSALQEAFISKQ | failed |
